# US20140087995A1 (published 2014)
# Numbered stars: 1 amine (or outer) side, 2 acyl side, 3 side chain; on linkers, the order of the positions; unused ones are H or OH. Bridge positions count the residues as written; N and C are the ends. Side chains are listed from the residue outwards. Ends that are not written are not given here. * marks the point of attachment. C20 diacid = O=C(O)CCCCCCCCCCCCCCCCCCC(=O)*; γGlu = O=C(O)[C@H](CCC(=O)[*:2])N[*:1]; AEEA = NCCOCCOCC(=O)O
# T1: rat calcitonin receptor (rat, UniProt P32214 25-516)
# T1 construct: whole, on cells; also called rCTR; rat calcitonin (a) receptor
# T1 sequence (looked up): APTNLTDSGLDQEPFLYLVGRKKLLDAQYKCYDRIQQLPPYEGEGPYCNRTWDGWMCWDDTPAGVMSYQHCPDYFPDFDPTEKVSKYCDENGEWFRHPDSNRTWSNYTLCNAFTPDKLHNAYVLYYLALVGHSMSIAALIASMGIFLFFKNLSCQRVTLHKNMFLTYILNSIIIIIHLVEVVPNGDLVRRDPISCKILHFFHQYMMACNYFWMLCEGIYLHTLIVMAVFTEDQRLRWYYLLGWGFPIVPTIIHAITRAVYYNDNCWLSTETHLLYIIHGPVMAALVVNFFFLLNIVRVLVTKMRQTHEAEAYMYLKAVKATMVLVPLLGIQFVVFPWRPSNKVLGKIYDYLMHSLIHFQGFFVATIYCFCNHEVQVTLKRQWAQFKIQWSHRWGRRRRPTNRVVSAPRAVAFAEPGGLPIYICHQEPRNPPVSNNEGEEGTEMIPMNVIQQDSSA
# T2: human calcitonin receptor (human, UniProt P30988 25-474)
# T2 construct: whole, on cells; also called hCTR; hCT
# T2 sequence (looked up): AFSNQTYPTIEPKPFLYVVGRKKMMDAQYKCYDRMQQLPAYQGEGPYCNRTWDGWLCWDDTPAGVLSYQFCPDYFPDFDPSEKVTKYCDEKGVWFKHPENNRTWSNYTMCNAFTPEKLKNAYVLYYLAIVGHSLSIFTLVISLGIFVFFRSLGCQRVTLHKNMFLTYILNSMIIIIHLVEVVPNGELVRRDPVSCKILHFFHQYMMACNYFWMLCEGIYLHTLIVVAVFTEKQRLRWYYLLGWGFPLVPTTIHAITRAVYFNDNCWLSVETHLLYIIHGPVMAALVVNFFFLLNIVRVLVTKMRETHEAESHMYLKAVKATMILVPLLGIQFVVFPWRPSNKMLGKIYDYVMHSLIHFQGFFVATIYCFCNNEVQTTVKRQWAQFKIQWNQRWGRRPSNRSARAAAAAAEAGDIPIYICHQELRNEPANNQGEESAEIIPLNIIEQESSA
# T3: rat amylin receptor (rat calcitonin receptor + rat RAMP 3) (rat, UniProt P32214 25-516; Q9JJ73 23-147)
# T3 construct: whole, on cells; also called rAmylin-R; rat amylin 3(a) receptor
# T3 sequence (looked up) 1: T1 sequence (looked up)
# T3 sequence (looked up) 2: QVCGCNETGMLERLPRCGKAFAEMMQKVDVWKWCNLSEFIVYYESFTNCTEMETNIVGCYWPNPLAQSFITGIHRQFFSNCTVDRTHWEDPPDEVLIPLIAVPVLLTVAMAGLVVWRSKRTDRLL
# B1: N^ε1-[2-[2-[2-[[(4S)-4-carboxy-4-(19-carboxynonadecanoylamino)butanoyl]amino]ethoxy]ethoxy]acetyl]-[Arg14,Arg17,Pro21,Pro27]-h-amylin (peptide)
# peptide: K([AEEA-γGlu-C20 diacid])CNTATCATQRLARFLRHSSPNFGAIPSSTNVGSNTY-NH2
# modifications: disulfide 2-7; N-terminus assumed
# SMILES: CC[C@H](C)[C@H](NC(=O)[C@H](C)NC(=O)CNC(=O)[C@H](Cc1ccccc1)NC(=O)[C@H](CC(N)=O)NC(=O)[C@@H]1CCCN1C(=O)[C@H](CO)NC(=O)[C@H](CO)NC(=O)[C@H](Cc1c[nH]cn1)NC(=O)[C@H](CCCNC(=N)N)NC(=O)[C@H](CC(C)C)NC(=O)[C@H](Cc1ccccc1)NC(=O)[C@H](CCCNC(=N)N)NC(=O)[C@H](C)NC(=O)[C@H](CC(C)C)NC(=O)[C@H](CCCNC(=N)N)NC(=O)[C@H](CCC(N)=O)NC(=O)[C@@H](NC(=O)[C@H](C)NC(=O)[C@@H]1CSSC[C@H](NC(=O)[C@@H](N)CCCCNC(=O)COCCOCCNC(=O)CC[C@H](NC(=O)CCCCCCCCCCCCCCCCCCC(=O)O)C(=O)O)C(=O)N[C@@H](CC(N)=O)C(=O)N[C@@H]([C@@H](C)O)C(=O)N[C@@H](C)C(=O)N[C@@H]([C@@H](C)O)C(=O)N1)[C@@H](C)O)C(=O)N1CCC[C@H]1C(=O)N[C@@H](CO)C(=O)N[C@@H](CO)C(=O)N[C@H](C(=O)N[C@@H](CC(N)=O)C(=O)N[C@H](C(=O)NCC(=O)N[C@@H](CO)C(=O)N[C@@H](CC(N)=O)C(=O)N[C@H](C(=O)N[C@@H](Cc1ccc(O)cc1)C(N)=O)[C@@H](C)O)C(C)C)[C@@H](C)O
# notes: synthetic analogue of human amylin; also called compound 82
# B2: N^ε1-[2-[2-[2-[[(4S)-4-carboxy-4-(19-carboxynonadecanoylamino)butanoyl]amino]ethoxy]ethoxy]acetyl]-[Arg17,Pro21,Pro27,Pro28,Pro34]-h-amylin (peptide)
# peptide: K([AEEA-γGlu-C20 diacid])CNTATCATQRLANFLRHSSPNFGAIPPSTNVGPNTY-NH2
# modifications: disulfide 2-7; N-terminus assumed
# SMILES: CC[C@H](C)[C@H](NC(=O)[C@H](C)NC(=O)CNC(=O)[C@H](Cc1ccccc1)NC(=O)[C@H](CC(N)=O)NC(=O)[C@@H]1CCCN1C(=O)[C@H](CO)NC(=O)[C@H](CO)NC(=O)[C@H](Cc1c[nH]cn1)NC(=O)[C@H](CCCNC(=N)N)NC(=O)[C@H](CC(C)C)NC(=O)[C@H](Cc1ccccc1)NC(=O)[C@H](CC(N)=O)NC(=O)[C@H](C)NC(=O)[C@H](CC(C)C)NC(=O)[C@H](CCCNC(=N)N)NC(=O)[C@H](CCC(N)=O)NC(=O)[C@@H](NC(=O)[C@H](C)NC(=O)[C@@H]1CSSC[C@H](NC(=O)[C@@H](N)CCCCNC(=O)COCCOCCNC(=O)CC[C@H](NC(=O)CCCCCCCCCCCCCCCCCCC(=O)O)C(=O)O)C(=O)N[C@@H](CC(N)=O)C(=O)N[C@@H]([C@@H](C)O)C(=O)N[C@@H](C)C(=O)N[C@@H]([C@@H](C)O)C(=O)N1)[C@@H](C)O)C(=O)N1CCC[C@H]1C(=O)N1CCC[C@H]1C(=O)N[C@@H](CO)C(=O)N[C@H](C(=O)N[C@@H](CC(N)=O)C(=O)N[C@H](C(=O)NCC(=O)N1CCC[C@H]1C(=O)N[C@@H](CC(N)=O)C(=O)N[C@H](C(=O)N[C@@H](Cc1ccc(O)cc1)C(N)=O)[C@@H](C)O)C(C)C)[C@@H](C)O
# notes: synthetic analogue of human amylin; also called compound 55
# B3: N^ε1-[2-[2-[2-[[(4S)-4-carboxy-4-(19-carboxynonadecanoylamino)butanoyl]amino]ethoxy]ethoxy]acetyl]-[Arg17,Pro21,Pro27,Arg34]-h-amylin (peptide)
# peptide: K([AEEA-γGlu-C20 diacid])CNTATCATQRLANFLRHSSPNFGAIPSSTNVGRNTY-NH2
# modifications: disulfide 2-7; N-terminus assumed
# SMILES: CC[C@H](C)[C@H](NC(=O)[C@H](C)NC(=O)CNC(=O)[C@H](Cc1ccccc1)NC(=O)[C@H](CC(N)=O)NC(=O)[C@@H]1CCCN1C(=O)[C@H](CO)NC(=O)[C@H](CO)NC(=O)[C@H](Cc1c[nH]cn1)NC(=O)[C@H](CCCNC(=N)N)NC(=O)[C@H](CC(C)C)NC(=O)[C@H](Cc1ccccc1)NC(=O)[C@H](CC(N)=O)NC(=O)[C@H](C)NC(=O)[C@H](CC(C)C)NC(=O)[C@H](CCCNC(=N)N)NC(=O)[C@H](CCC(N)=O)NC(=O)[C@@H](NC(=O)[C@H](C)NC(=O)[C@@H]1CSSC[C@H](NC(=O)[C@@H](N)CCCCNC(=O)COCCOCCNC(=O)CC[C@H](NC(=O)CCCCCCCCCCCCCCCCCCC(=O)O)C(=O)O)C(=O)N[C@@H](CC(N)=O)C(=O)N[C@@H]([C@@H](C)O)C(=O)N[C@@H](C)C(=O)N[C@@H]([C@@H](C)O)C(=O)N1)[C@@H](C)O)C(=O)N1CCC[C@H]1C(=O)N[C@@H](CO)C(=O)N[C@@H](CO)C(=O)N[C@H](C(=O)N[C@@H](CC(N)=O)C(=O)N[C@H](C(=O)NCC(=O)N[C@@H](CCCNC(=N)N)C(=O)N[C@@H](CC(N)=O)C(=O)N[C@H](C(=O)N[C@@H](Cc1ccc(O)cc1)C(N)=O)[C@@H](C)O)C(C)C)[C@@H](C)O
# notes: synthetic analogue of human amylin; also called compound 78
# B4: N^ε1-[2-[2-[2-[[(4S)-4-carboxy-4-(19-carboxynonadecanoylamino)butanoyl]amino]ethoxy]ethoxy]acetyl]-[Arg17,Pro21,Pro27,Pro28,Pro31]-h-amylin (peptide)
# peptide: K([AEEA-γGlu-C20 diacid])CNTATCATQRLANFLRHSSPNFGAIPPSTPVGSNTY-NH2
# modifications: disulfide 2-7
# notes: synthetic analogue of human amylin; also called compound 53
# B5: N^ε1-[2-[2-[2-[[(4S)-4-carboxy-4-(19-carboxynonadecanoylamino)butanoyl]amino]ethoxy]ethoxy]acetyl]-[Arg17,Pro21,Pro27,His34]-h-amylin (peptide)
# peptide: K([AEEA-γGlu-C20 diacid])CNTATCATQRLANFLRHSSPNFGAIPSSTNVGHNTY-NH2
# modifications: disulfide 2-7; N-terminus assumed
# SMILES: CC[C@H](C)[C@H](NC(=O)[C@H](C)NC(=O)CNC(=O)[C@H](Cc1ccccc1)NC(=O)[C@H](CC(N)=O)NC(=O)[C@@H]1CCCN1C(=O)[C@H](CO)NC(=O)[C@H](CO)NC(=O)[C@H](Cc1c[nH]cn1)NC(=O)[C@H](CCCNC(=N)N)NC(=O)[C@H](CC(C)C)NC(=O)[C@H](Cc1ccccc1)NC(=O)[C@H](CC(N)=O)NC(=O)[C@H](C)NC(=O)[C@H](CC(C)C)NC(=O)[C@H](CCCNC(=N)N)NC(=O)[C@H](CCC(N)=O)NC(=O)[C@@H](NC(=O)[C@H](C)NC(=O)[C@@H]1CSSC[C@H](NC(=O)[C@@H](N)CCCCNC(=O)COCCOCCNC(=O)CC[C@H](NC(=O)CCCCCCCCCCCCCCCCCCC(=O)O)C(=O)O)C(=O)N[C@@H](CC(N)=O)C(=O)N[C@@H]([C@@H](C)O)C(=O)N[C@@H](C)C(=O)N[C@@H]([C@@H](C)O)C(=O)N1)[C@@H](C)O)C(=O)N1CCC[C@H]1C(=O)N[C@@H](CO)C(=O)N[C@@H](CO)C(=O)N[C@H](C(=O)N[C@@H](CC(N)=O)C(=O)N[C@H](C(=O)NCC(=O)N[C@@H](Cc1c[nH]cn1)C(=O)N[C@@H](CC(N)=O)C(=O)N[C@H](C(=O)N[C@@H](Cc1ccc(O)cc1)C(N)=O)[C@@H](C)O)C(C)C)[C@@H](C)O
# notes: synthetic analogue of human amylin; also called compound 76
# Target: T1, rat calcitonin receptor
# Test: ratio of binding IC50s: rat calcitonin receptor over rat amylin receptor (reference)
row,Binder,Ratio rCT/rAmylin binding
1,B1,87
2,B2,77.2
3,B3,69.9
4,B4,130
5,B5,56.8

# Target: T2, human calcitonin receptor
# Test: ratio of binding IC50s: human calcitonin receptor over human amylin receptor (reference)
# Method: The resulting pellet was resuspended, homogenized and centrifuged (20.000 rpm, 15 min) in a buffer containing 20 mM Na-HEPES and 0.1 mM EDTA (pH 7.4, buffer 2). The resulting pellet was resuspended in buffer 2 and protein concentration was measured (BCA protein Assay, Pierce). The homogenate was kept cold during the whole procedure. The membranes were kept at −80° C. until use. The assay was performed in a 384 well Optiplate (PerkinElmer) in a total volume of 40 ul. Membranes were mixed with SPA beads. Final concentration of membranes 35 ng/μL final and SPA beads was 0.05 mg/well. Test-compounds were dissolved in DMSO and further diluted in assay buffer (50 mM Hepes, pH 7.4, 1 mM CaCl2, 5 mM MgCl₂, 0.1% OA and 0.02% Tween20). […] The final mixture was incubated with shaking at 400 rpm for 120 min at 25° C. prior to centrifugation (1500 rpm, 10 min). Samples were analyzed on TopCounter™ (Packard). The IC₅₀ was calculated using (one site binding competition analysis) GraphPad Prism5 as a measure of receptor affinity.
# Membranes were prepared in the following way; the cells were rinsed with PBS and incubated with Versene for approximately 5 min before harvesting. The cells were flushed with PBS and the cell-suspension was centrifuged for 5 min at 1000 rpm. Cells were homogenized (Ultrathurrax) in a buffer containing 20 mM Na-HEPES and 10 mM EDTA (pH 7.4) and centrifuged at 20.000 rpm for 15 min. The resulting pellet was resuspended, homogenized and centrifuged (20.000 rpm, 15 min) in a buffer containing 20 mM Na-HEPES and 0.1 mM EDTA (pH 7.4, buffer 2). The resulting pellet was resuspended in buffer 2 and protein concentration was measured (BCA protein Assay, Pierce). The homogenate was kept cold during the whole procedure. The membranes were kept at −80° C. until use. Assay was performed in a 384 well Optiplate (PerkinElmer) in a total volume of 40 ul. Membranes were mixed with SPA beads.
row,Binder,Ratio hCT/hAmylin binding
1,B1,140
2,B2,51.8
3,B3,60.7
4,B4,104
5,B5,80

# Target: T1, rat calcitonin receptor
# Test: SPA competition with 125I-calcitonin, membranes of BHK cells with rat calcitonin receptor (Assay VIII)
row,Binder,IC50
1,B1,143 nM
2,B2,6.25 nM
3,B3,90.6 nM
4,B4,10.9 nM
5,B5,38.9 nM

# Target: T3, rat amylin receptor (rat calcitonin …)
# Test: SPA competition with 125I-rat amylin, membranes of BHK cells with rat calcitonin receptor + rat RAMP3 (Assay VI)
row,Binder,IC50
1,B1,1.64 nM
2,B2,0.081 nM
3,B3,1.3 nM
4,B4,0.084 nM
5,B5,0.686 nM
